Experimental data as given in US20250339569A1 (3B PHARMACEUTICALS, published 2025).
Starred links: 1 amine or outer side, 2 acyl side, 3 side chain; linkers in the order of their positions; H or OH if unused. Positions of bridges follow the written chain, without caps; N, C: chain ends. Non-standard residues stand in square brackets, D forms with d. Groups on a side chain read outwards from the residue. Primed or numbered codes have the meaning given here. No end group written: not given here. *: point of attachment. APAc″ = 2-(4-(amino)piperidin-1-yl)acetic acid, NC1CCN(CC(=O)*)CC1; DOTA = O=C(O)CN1CCN(CC(=O)O)CCN(CC(=O)*)CCN(CC(=O)O)CC1; mXylylene = c1cc(C[*:1])cc(C[*:2])c1; NMeY = CN[C@@H](Cc1ccc(O)cc1)C(=O)O; APAc = not defined here; Apr = not defined here; AEEA = NCCOCCOCC(=O)O

target: human carbonic anhydrase 9 (CAIX) (human, UniProt Q16790 38-459); assay: FACS competition on HT-29 cells against tracer 3BP-2776; pIC50 category A = pIC50 >8.0
Experimental: CAIX-expressing human HT-29 colorectal cancer cells (DSMZ, RRID: CVCL_0320) were cultured in McCoys's 5A modified medium (Biochrom, #F1015) including 10% fetal calf serum (FCS), 2 mM L-glutamine, 100 U/ml penicillin and 100 μg/mL streptomycin. Cells were detached with Accutase (Biolegend, #423201) and washed in FACS buffer (PBS including 1% FCS). Cells were diluted in FACS buffer to a final concentration of 500.000 cells per ml. 200 μL of the cell suspension were transferred to a u-shaped non-binding 96-well plate (Greiner) and cells were washed in ice-cold FACS buffer.
When biotinylated compounds were used an additional incubation step with 1 μg/mL APC-Streptavidin (Miltenyi; #130-106-791) in 50 μL FACS buffer for 30 minutes on ice was performed.
Cells were washed twice with ice-cold FACS buffer and analyzed in an Attune NxT flow cytometer (Thermo Fisher). Median fluorescence intensities (MFI) of the APC/Cy5-channel were calculated by Attune NxT software.

Binder | pIC50 [pic50]
{DOTA-APAc″}-VYCE[dP]DWLTWAC-NH2 (linker 3-12 via mXylylene, also called DOTA-APAc-Val-Tyr-[Cys(3MeBn)-Glu-pro-Asp-Trp-Leu-Thr-Trp-Ala-Cys]-NH2) [3BP-3432] | > 8
Ac-VYCE[dP]DWLTWEC-NH2 (linker 3-12 via mXylylene; not fully specified (residue 11); also: indium complexed by DOTA, also called Ac-Val-Tyr-[Cys(3MeBn)-Glu-pro-Asp-Trp-Leu-Thr-Trp-Glu(NH-Apr-O2Oc-InDOTA′)-Cys]-NH2) [3BP-3843] | > 8
Ac-VYCE[dP]DWLTWAC (linker 3-12 via mXylylene; not fully specified (C-terminus), also called Ac-Val-Tyr-[Cys(3MeBn)-Glu-pro-Asp-Trp-Leu-Thr-Trp-Ala-Cys]-Ape-NH-DOTA′) [3BP-3434] | > 8
{DOTA-APAc}-VYCE[dP]DFLTWSC-NH2 (linker 3-12 via mXylylene; reading uncertain, also called DOTA-APAc-Val-Tyr-[Cys(3MeBn)-Glu-pro-Asp-Phe-Leu-Thr-Trp-Ser-Cys]-NH2) [3BP-3596] | > 8
Ac-VYCE[dP]DWLTWE([Apr-AEEA-DOTA])C-NH2 (linker 3-12 via mXylylene; reading uncertain, also called Ac-Val-Tyr-[Cys(3MeBn)-Glu-pro-Asp-Trp-Leu-Thr-Trp-Glu(NH-Apr-O2Oc-DOTA′)-Cys]-NH2) [3BP-3479] | > 8
{DOTA-APAc}-VYCE[dP]DWLHWSC-NH2 (linker 3-12 via mXylylene; reading uncertain, also called DOTA-APAc-Val-Tyr-[Cys(3MeBn)-Glu-pro-Asp-Trp-Leu-His-Trp-Ser-Cys]-NH2) [3BP-3597] | > 8
Ac-SRCE[dP]DWLTWE([Apr-AEEA-DOTA])C-NH2 (linker 3-12 via 3MeBn; reading uncertain, also called Ac-Ser-Arg-[Cys(3MeBn)-Glu-pro-Asp-Trp-Leu-Thr-Trp-Glu(NH-Apr-O2Oc-DOTA′)-Cys]-NH2) [3BP-3735] | > 8
Ac-IYCE[dP]DWLTWSC-NH2 (linker 3-12 via mXylylene; SMILES CC[C@H](C)[C@H](NC(C)=O)C(=O)N[C@@H](Cc1ccc(O)cc1)C(=O)N[C@H]1CSCc2cccc(c2)CSC[C@@H](C(N)=O)NC(=O)[C@H](CO)NC(=O)[C@H](Cc2c[nH]c3ccccc23)NC(=O)[C@H]([C@@H](C)O)NC(=O)[C@H](CC(C)C)NC(=O)[C@H](Cc2c[nH]c3ccccc23)NC(=O)[C@H](CC(=O)O)NC(=O)[C@H]2CCCN2C(=O)[C@H](CCC(=O)O)NC1=O, also called Ac-Ile-Tyr-[Cys(3MeBn)-Glu-pro-Asp-Trp-Leu-Thr-Trp-Ser-Cys]-NH2) [3BP-3568] | > 8
Ac-TYCE[dP]DWLTWSC-NH2 (linker 3-12 via mXylylene; SMILES CC(=O)N[C@H](C(=O)N[C@@H](Cc1ccc(O)cc1)C(=O)N[C@H]1CSCc2cccc(c2)CSC[C@@H](C(N)=O)NC(=O)[C@H](CO)NC(=O)[C@H](Cc2c[nH]c3ccccc23)NC(=O)[C@H]([C@@H](C)O)NC(=O)[C@H](CC(C)C)NC(=O)[C@H](Cc2c[nH]c3ccccc23)NC(=O)[C@H](CC(=O)O)NC(=O)[C@H]2CCCN2C(=O)[C@H](CCC(=O)O)NC1=O)[C@@H](C)O, also called Ac-Thr-Tyr-[Cys(3MeBn)-Glu-pro-Asp-Trp-Leu-Thr-Trp-Ser-Cys]-NH2) [3BP-3567] | > 8
Ac-VRCE[dP]DWLTWEC-NH2 (linker 3-12 via mXylylene; not fully specified (residue 11); also: indium complexed by DOTA, also called Ac-Val-Arg-[Cys(3MeBn)-Glu-pro-Asp-Trp-Leu-Thr-Trp-Glu(NH-Apr-O2Oc-InDOTA′)-Cys]-NH2) [3BP-3845] | > 8
Ac-SYCE[dP]DWLTWE([Apr-AEEA-DOTA])C-NH2 (linker 3-12 via 3MeBn; reading uncertain, also called Ac-Ser-Tyr-[Cys(3MeBn)-Glu-pro-Asp-Trp-Leu-Thr-Trp-Glu(NH-Apr-O2Oc-DOTA′)-Cys]-NH2) [3BP-3732] | > 8
Ac-VFCE[dP]DWLTWE([Apr-AEEA-DOTA])C-NH2 (linker 3-12 via 3MeBn; reading uncertain, also called Ac-Val-Phe-[Cys(3MeBn)-Glu-pro-Asp-Trp-Leu-Thr-Trp-Glu(NH-Apr-O2Oc-DOTA′)-Cys]-NH2) [3BP-3733] | > 8
Ac-VSCE[dP]DWLTWSC-NH2 (linker 3-12 via mXylylene; SMILES CC(=O)N[C@H](C(=O)N[C@@H](CO)C(=O)N[C@H]1CSCc2cccc(c2)CSC[C@@H](C(N)=O)NC(=O)[C@H](CO)NC(=O)[C@H](Cc2c[nH]c3ccccc23)NC(=O)[C@H]([C@@H](C)O)NC(=O)[C@H](CC(C)C)NC(=O)[C@H](Cc2c[nH]c3ccccc23)NC(=O)[C@H](CC(=O)O)NC(=O)[C@H]2CCCN2C(=O)[C@H](CCC(=O)O)NC1=O)C(C)C, also called Ac-Val-Ser-[Cys(3MeBn)-Glu-pro-Asp-Trp-Leu-Thr-Trp-Ser-Cys]-NH2) [3BP-3571] | > 8
{DOTA-APAc}-VYCE[dP]DWLTWSC-NH2 (linker 3-12 via mXylylene; reading uncertain, also called DOTA-APAc-Val-Tyr-[Cys(3MeBn)-Glu-pro-Asp-Trp-Leu-Thr-Trp-Ser-Cys]-NH2) [3BP-3583] | > 8
Ac-VYCE[dP]DWLTWSC-NH2 (linker 3-12 via mXylylene; SMILES CC(=O)N[C@H](C(=O)N[C@@H](Cc1ccc(O)cc1)C(=O)N[C@H]1CSCc2cccc(c2)CSC[C@@H](C(N)=O)NC(=O)[C@H](CO)NC(=O)[C@H](Cc2c[nH]c3ccccc23)NC(=O)[C@H]([C@@H](C)O)NC(=O)[C@H](CC(C)C)NC(=O)[C@H](Cc2c[nH]c3ccccc23)NC(=O)[C@H](CC(=O)O)NC(=O)[C@H]2CCCN2C(=O)[C@H](CCC(=O)O)NC1=O)C(C)C, also called Ac-Val-Tyr-[Cys(3MeBn)-Glu-pro-Asp-Trp-Leu-Thr-Trp-Ser-Cys]-NH2) [3BP-3565] | > 8
{DOTA-APAc}-VYCE[dP]DWLTWRC-NH2 (linker 3-12 via mXylylene; reading uncertain, also called DOTA-APAc-Val-Tyr-[Cys(3MeBn)-Glu-pro-Asp-Trp-Leu-Thr-Trp-Arg-Cys]-NH2) [3BP-3599] | > 8
Ac-VRCE[dP]DWLTWSC-NH2 (linker 3-12 via mXylylene; SMILES CC(=O)N[C@H](C(=O)N[C@@H](CCCNC(=N)N)C(=O)N[C@H]1CSCc2cccc(c2)CSC[C@@H](C(N)=O)NC(=O)[C@H](CO)NC(=O)[C@H](Cc2c[nH]c3ccccc23)NC(=O)[C@H]([C@@H](C)O)NC(=O)[C@H](CC(C)C)NC(=O)[C@H](Cc2c[nH]c3ccccc23)NC(=O)[C@H](CC(=O)O)NC(=O)[C@H]2CCCN2C(=O)[C@H](CCC(=O)O)NC1=O)C(C)C, also called Ac-Val-Arg-[Cys(3MeBn)-Glu-pro-Asp-Trp-Leu-Thr-Trp-Ser-Cys]-NH2) [3BP-3588] | > 8
Ac-SYCE[dP]DWLTWSC-NH2 (linker 3-12 via mXylylene; SMILES CC(=O)N[C@@H](CO)C(=O)N[C@@H](Cc1ccc(O)cc1)C(=O)N[C@H]1CSCc2cccc(c2)CSC[C@@H](C(N)=O)NC(=O)[C@H](CO)NC(=O)[C@H](Cc2c[nH]c3ccccc23)NC(=O)[C@H]([C@@H](C)O)NC(=O)[C@H](CC(C)C)NC(=O)[C@H](Cc2c[nH]c3ccccc23)NC(=O)[C@H](CC(=O)O)NC(=O)[C@H]2CCCN2C(=O)[C@H](CCC(=O)O)NC1=O, also called Ac-Ser-Tyr-[Cys(3MeBn)-Glu-pro-Asp-Trp-Leu-Thr-Trp-Ser-Cys]-NH2) [3BP-3566] | > 8
Ac-VYCE[dP]DWLTWE([Apr-DOTA])C-NH2 (linker 3-12 via mXylylene; reading uncertain, also called Ac-Val-Tyr-[Cys(3MeBn)-Glu-pro-Asp-Trp-Leu-Thr-Trp-Glu(NH-Apr-DOTA′)-Cys]-NH2) [3BP-3478] | > 8
{DOTA-APAc}-VYCE[dP]SWLTWSC-NH2 (linker 3-12 via mXylylene; reading uncertain, also called DOTA-APAc-Val-Tyr-[Cys(3MeBn)-Glu-pro-Ser-Trp-Leu-Thr-Trp-Ser-Cys]-NH2) [3BP-3595] | > 8
Ac-V[NMeY]CE[dP]DWLTWSC-NH2 (linker 3-12 via mXylylene; SMILES CC(=O)N[C@H](C(=O)N(C)[C@@H](Cc1ccc(O)cc1)C(=O)N[C@H]1CSCc2cccc(c2)CSC[C@@H](C(N)=O)NC(=O)[C@H](CO)NC(=O)[C@H](Cc2c[nH]c3ccccc23)NC(=O)[C@H]([C@@H](C)O)NC(=O)[C@H](CC(C)C)NC(=O)[C@H](Cc2c[nH]c3ccccc23)NC(=O)[C@H](CC(=O)O)NC(=O)[C@H]2CCCN2C(=O)[C@H](CCC(=O)O)NC1=O)C(C)C, also called Ac-Val-Nmy-[Cys(3MeBn)-Glu-pro-Asp-Trp-Leu-Thr-Trp-Ser-Cys]-NH2) [3BP-3589] | > 8
Ac-VRCE[dP]DWLTWE([Apr-AEEA-DOTA])C-NH2 (linker 3-12 via 3MeBn; reading uncertain, also called Ac-Val-Arg-[Cys(3MeBn)-Glu-pro-Asp-Trp-Leu-Thr-Trp-Glu(NH-Apr-O2Oc-DOTA′)-Cys]-NH2) [3BP-3734] | > 8
VYCE[dP]DWLTWSC-NH2 (linker 3-12 via 3MeBn; not fully specified (N-terminus); also: europium complexed by DOTA, also called EuDOTA-APAc-Val-Tyr-[Cys(3MeBn)-Glu-pro-Asp-Trp-Leu-Thr-Trp-Ser-Cys]-NH2) [3BP-3784] | > 8
Ac-VFCE[dP]DWLTWEC-NH2 (linker 3-12 via mXylylene; not fully specified (residue 11); also: indium complexed by DOTA, also called Ac-Val-Phe-[Cys(3MeBn)-Glu-pro-Asp-Trp-Leu-Thr-Trp-Glu(NH-Apr-O2Oc-InDOTA′)-Cys]-NH2) [3BP-3844] | > 8
Ac-VYCE[dP]DWLTWAC (linker 3-12 via mXylylene; not fully specified (C-terminus), The printed formula ends at '-Ape-NH'; also called Ac-Val-Tyr-[Cys(3MeBn)-Glu-pro-Asp-Trp-Leu-Thr-Trp-Ala-Cys]-Mamb-Ape-NH) [3BP-3433] | > 8
Ac-VFCE[dP]DWLTWSC-NH2 (linker 3-12 via mXylylene; SMILES CC(=O)N[C@H](C(=O)N[C@@H](Cc1ccccc1)C(=O)N[C@H]1CSCc2cccc(c2)CSC[C@@H](C(N)=O)NC(=O)[C@H](CO)NC(=O)[C@H](Cc2c[nH]c3ccccc23)NC(=O)[C@H]([C@@H](C)O)NC(=O)[C@H](CC(C)C)NC(=O)[C@H](Cc2c[nH]c3ccccc23)NC(=O)[C@H](CC(=O)O)NC(=O)[C@H]2CCCN2C(=O)[C@H](CCC(=O)O)NC1=O)C(C)C, also called Ac-Val-Phe-[Cys(3MeBn)-Glu-pro-Asp-Trp-Leu-Thr-Trp-Ser-Cys]-NH2) [3BP-3570] | > 8
